In publication PMC7666158, “Co-regulation of the transcription controlling ATF2 phosphoswitch by JNK and p38” (Nature Communications, 2020):

Tests used:
pp-p38 (activated, …) [1] = biological target: T1, pp-p38 (activated, double-phosphorylated p38alpha) (human, UniProt Q16539 1-360, double-phosphorylated on the activation loop (pp-p38; T180/Y182 as named for the anti-pp-p38 antibody; pY182 in Fig. 5b)); test: in vitro kinase assay fitted with a kinetic model; 5 nM pp-JNK or pp-p38, MBP-ATF2(19-100) substrate 0.5-100 uM, 5 mM ATP, kinase buffer; p-T71 and p-T69/T71 by quantitative dot-blots; binding rates (kon, koff) and reaction rates fitted simultaneously with the BioNetGen model (PyBioNetFit); conditions: both partners purified
T1 construct: human p38alpha (MAPK14), phosphorylated form; also called pp-p38α; source: E. coli, co-expressed with constitutively active GST-tagged MAP2Ks, purified
T1 sequence (Q16539 whole entry): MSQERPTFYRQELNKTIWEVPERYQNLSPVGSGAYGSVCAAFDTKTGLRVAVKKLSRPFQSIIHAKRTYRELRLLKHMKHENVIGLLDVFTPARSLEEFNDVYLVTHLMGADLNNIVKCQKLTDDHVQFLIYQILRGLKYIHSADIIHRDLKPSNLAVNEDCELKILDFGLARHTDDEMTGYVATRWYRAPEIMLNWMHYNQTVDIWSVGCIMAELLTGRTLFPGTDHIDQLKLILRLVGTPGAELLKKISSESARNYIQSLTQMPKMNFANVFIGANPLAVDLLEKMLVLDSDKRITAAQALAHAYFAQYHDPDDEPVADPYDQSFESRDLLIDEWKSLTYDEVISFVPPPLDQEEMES

pp-p38 (activated, …) [2] = biological target: T1, pp-p38 (activated, …); test: as above; conditions: both partners purified; remark: listed apart in the source

B1: MBP-ATF2(19-100)-WT (domain or fragment, human, UniProt P15336-1 19-100, looked up)
chain: MSDDKPFLCTAPGCGQRFTNEDHLAVHKHKHEMTLKFGPARNDSVIVADQTPTPTRFLKNCEEVGLFNELASPFENEFKKAS
notes: A TEV site lies between MBP and ATF2; also called MBP-ATF2-His6; ATF2 TAD; source: E. coli BL21(DE3), purified (Ni-NTA, maltose resin); not shown: MBP, N-terminal, kept; His6, C-terminal, kept
koff (pp-p38 (activated, …) [1]): 429 s⁻¹
kon (pp-p38 (activated, …) [1]): 1.72e+07 M⁻¹ s⁻¹
Kd (pp-p38 (activated, …) [2]): ~25 µM
